{"source": "paper PMC9645375", "about": "(Chemical Science, 2022)", "biological_target": "HDM2 (human double minute 2) protein (human, UniProt Q00987 1-491)", "sequence (Q00987 whole entry)": "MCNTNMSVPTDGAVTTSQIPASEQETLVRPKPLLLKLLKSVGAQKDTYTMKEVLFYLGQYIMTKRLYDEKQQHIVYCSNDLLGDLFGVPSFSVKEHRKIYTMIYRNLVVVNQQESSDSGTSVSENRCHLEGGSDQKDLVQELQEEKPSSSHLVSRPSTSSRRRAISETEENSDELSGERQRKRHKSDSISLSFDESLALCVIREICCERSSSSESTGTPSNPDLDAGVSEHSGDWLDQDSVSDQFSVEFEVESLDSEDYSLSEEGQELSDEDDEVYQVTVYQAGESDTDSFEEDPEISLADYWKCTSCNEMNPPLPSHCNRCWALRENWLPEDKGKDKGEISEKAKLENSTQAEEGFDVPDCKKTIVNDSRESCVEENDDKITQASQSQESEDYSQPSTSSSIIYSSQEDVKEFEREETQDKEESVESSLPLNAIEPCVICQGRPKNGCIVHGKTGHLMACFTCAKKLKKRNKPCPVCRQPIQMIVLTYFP", "assay": "fluorescence polarisation", "conditions": "both partners purified", "data": [{"binder": "PCFYDYWQCL (not fully specified; stapled (the two Cys residues at i and i+7 cross-linked), source: synthetic peptide)", "note": "[stapled HDM2-opt peptide]", "values": [{"measurement": "IC50", "result": "6.9 ± 1.9", "unit": "µM"}]}]}
